We go through 7 molecules from patent US10781456B2, “Carbon-neutral and carbon-positive photorespiration bypass routes supporting higher photosynthetic rate and yield” (Max-Planck-Gesellschaft zur Förderung der Wissenschaften …, priority 2015, dated 2020).

Read-outs that look alike come from different tables or passages of the source.

Series [1] has as its target D-fructose 6-phosphate aldolase encoded by E. coli gene fsaA (UniProt P78055). The settings on record: cited from earlier work.
Series [2] deals with D-fructose 6-phosphate aldolase encoded by E. coli gene fsaB (UniProt P32669). The settings on record: cited from earlier work.
A further series has as its system tartronyl-CoA. Briefly: malonyl-CoA reductase spectrophotometric assay, NADPH oxidation at 365 nm, tartronyl-CoA into glycerate (reactions 4# and 5). Type of series: biochemical. The settings on record: 0.25 mM tartronyl-CoA. As for the experimental part:
(§1) The kinetics of the MCRCa enzyme for enzymatically converting the substrate tartonyl-CoA into glycerate (via reactions 4# and 5 both catalyzed by MCRCa) were determined spectrophotometrically at 365 nm following the oxidation of NADPH. Per molecule tartronyl-CoA, two molecules of NADPH are oxidized by MCRCa (a first in reaction 4# and a second in reaction 5) The measurements were carried out at 37° C. in a total reaction volume of 200 μL containing 100 mM MOPS buffer (with 5 mM MgCl2, pH 7.5) with an initial NADPH concentration of 0.4 mM NADPH and 23 μg MCRCa.
(§2) An alternative enzyme for catalyzing the conversion of tartonyl-CoA into glycerate (via reactions 4# and 5) is the MCR from Erythrobacter sp. NAP1 (MCRE). It was tested for its activity with malonyl-CoA and for tartronyl-CoA with the assay described above for MCRCa.

The next series has as its system malonyl-CoA. Briefly: malonyl-CoA reductase activity with physiological substrate malonyl-CoA. The format is biochemical. The protocol:
as §1
(0.3 mM substrate, Kröger et al. 2011, loc. cit.). With tartronyl-CoA (0.25 mM), the specific activity at 37° C. was 0.6 U mg^−1.
as §2

Substrate in series [3]: CC(C)(COP(=O)(O)OP(=O)(O)OC[C@H]1O[C@@H](n2cnc3c(N)ncnc32)[C@H](O)[C@@H]1OP(=O)(O)O)[C@@H](O)C(=O)NCCC(=O)NCCSC(=O)C(O)C(=O)O
The series can be described thus: MCRCa activity for conversion of tartronyl-CoA into glycerate (reactions 4# and 5), NADPH oxidation. Type of series: biochemical, Chloroflexus aurantiacus. The settings on record: pH 7.5, 0.4 mM NADPH. As for the experimental part: For the heterologous expression of the MCRCa protein (amino acid sequence is shown in SEQ ID NO: 8; corresponding nucleic acid sequence encoding the protein is depicted in SEQ ID NO: 7) the previously described pTRC-MCRCa plasmid (Kröger et al., 2011, Analytical biochemistry, 411(1), 100-105) was employed.
Cells were harvested at 10 000×g for 10 min and cell pellets were stored at −80° C. until purification of enzymes. Cell pellets of MCRCa and MCRE overexpressing cells were resuspended in two-fold volume of buffer AStrep (50 mM Tris/HCl, 150 mM NaCl, pH 7.8) containing 0.1 mg mL^−1 DNAse I. The cell suspension was passed through a French pressure cell twice at a pressure of 137 MPa and centrifuged at 100 000×g and 4° C. for 1 h. The supernatant was filtered through a 0.45 μm syringe filter and loaded at a flow rate of 1 mL min^−1 onto a 1 mL StrepTrap™ HP column (GE healthcare) which had previously been equilibrated with 5 column volumes of buffer AStrep. The column was washed with 20 column volumes of buffer AStrep and the protein was eluted with buffer AStrep containing 3 mM desthiobiotin. The enzyme was stored in buffer AStrep containing 20% glycerol.
as §1

Substrate in series [4]: CC(C)(COP(=O)(O)OP(=O)(O)OC[C@H]1O[C@@H](n2cnc3c(N)ncnc32)[C@H](O)[C@@H]1OP(=O)(O)O)[C@@H](O)C(=O)NCCC(=O)NCCSC(=O)CO
Briefly: PCCMe_D407I_Y143H activity for conversion of glycolyl-CoA into tartronyl-CoA (reaction 3#), coupled ATP hydrolysis (PK/LDH) assay. The settings on record: other: 37° C., pH 7.7, ATP hydrolysis assay, 0.125-3 mM glycolyl-CoA, n=2. Type of series: biochemical, Methylobacterium extorquens.

[5] abbreviates: as a substrate, read-out: KM for D-fructose 6-phosphate.
Setting [6] is: bound stated for both fsaA and fsaB enzymes, read-out: KM (condensation of glycolaldehyde as donor with D-glyceraldehyde 3-phosphate as acceptor).
The mark [7] stands for this setting: as a substrate, read-out: KM for dihydroxyacetone phosphate.
Where [8] appears, read: other: 37° C., n=3, nonlinear regression.
The mark [9] stands for this setting: other: FIG. 8D and Table 5, 37° C., n=3.

In the case of `O=P(O)(O)OC[C@H]1OC(O)[C@@H](O)[C@@H]1O` (stereo partly drawn) [D-arabinose 5-phosphate], in series [1] (read-out: KM for D-arabinose 5-phosphate), the Michaelis-Menten constant (Km) (in general, the substrate concentration at which the rate is half of its maximum) was roughly 500 µM.
Consider `O=P(O)(O)OC[C@H]1OC(O)(CO)[C@@H](O)[C@@H]1O` (stereo partly drawn) [D-fructose 6-phosphate], for which the Km in series [1] (setting [5]) and in series [2] (setting [5]) was greater than 6000 µM throughout.
On to `O=C[C@H](O)COP(=O)(O)O` [D-glyceraldehyde 3-phosphate], for which the Km in series [1] (setting [6]) and in series [2] (setting [6]) was less than 1000 µM each time.
Take `O=C(CO)COP(=O)(O)O` [dihydroxyacetone phosphate]: the Michaelis-Menten constant (Km) in series [1] (setting [7]) and in series [2] (setting [7]) was greater than 25000 µM each time.

B1: MCRE: malonyl-CoA reductase of Erythrobacter sp. NAP1, NCBI accession no. WP_007163680.1, SEQ ID NO: 10 (protein, listed as Erythrobacter sp.)
chain: MSKEGNAAKGRLEGKVALITGAAGNLGNEISRAFAREGAFVVMTGRTEERISAAREQLIADTGVAPERIDTAVLDGGNPDSIRAAMAKLRKEYGRIDILINNAGSAGPKQPLHNVPLSPQEMEACGDTETVRDAMLNILGVTWNMARIVAPMMPVGGAMVNISTIFSHTRYYGRTAYVVPKAALNALSNQLASELGPRGIRVNTVFPGPIESDRIRTVFAAMDEVQSQPKDTTANYFTGRMALTRSVNGKVDGKPLPNPKDIAGTCLFLASEEAAGIAGEEVDVTHGLSANRTSASTYMTRPSMRSLDGAGLNIFIVSGENWDDALVAAHTLIGSGAKVRLGLARNADVAQANARLKAQGIGEELTVTRFNRAEPDAMEDALAAFSGDVDGAITGAIILPVKPSGHFTGSLLAADDDTVTKFMDTELVGAIAVSRSLARYWHGREDLQSPPRCVFMTNPGDPLGNSFASVLSAGITQLIRIWRDEERVQAGNGSTEHAVWSNQIVRHTNTEDENTRFASGHATRVLFREQHIAEIDLKLPANISEETGSRKAMVGFAENITGLHLGKVAFITGGSAGIGGQVARLLALAGAKVMMVARRESELVAARDRIVGELQDIGFAGVERRVKYMADIDVSDFASLDKAVDATLEEFGRIDYLINNAGVAGAEDMVIDMEPEAWRFTLDANLISNYHLMQRVVPLMKEQGSGYVLNVSSYFGGEKFLAVAYPNRADYGLSKAGQRAMVEAFSPFLGPEVQCNAIAPGPVDGDRLSGTGGKPGLFQRRAKLILENKRLNAVYSAVIHAIREGGDAAKILTRLSRNSTSTLSHDAEAPEELRKLALDFASQGDGLCTWDQYLLTDAMAQRLLVRLQLGGFLLGSNEWASLSSSEQTWLKLSPPDDKPFLPAAQVDKVANGVGKGVISQLHLGAMPTEAEVAQATVFFLADRAVSGETFMPSGGLRVERSNTEREMFGSPKQERIDKMKGKTVWIIGEHLSDYVAATIEELVSGCGVAKVVLIAKDKSGEKAVRDQLPNDLSKDALEVLIAGDGLEEAMDEALGHWGKPTTVLSMPGEPLPDHLFEGGNPLSTKDFAHMVEANITRHYRVTRKASLYDGCQVVLVSPDVPYGSDGPGVALANFVKTSLHAFTATVAVENERLVHDVPVNQINLTRRVSSEEPRDADEHAEELRRFTRAVLLVGAPLPDAQDSRYRSKIYRGTSMTV
modifications: [CDS]1..3654 from SEQ ID NO 9
For the molecule B1, the “specific activity for tartronyl-CoA, times lower than that of MCRCa” value with tartronyl-CoA is 6 times. Moreover, in the series on tartronyl-CoA (37° C.), the “specific activity with tartronyl-CoA” value amounted to 0.1 U mg^−1. For the same molecule, the “specific activity for malonyl-CoA, times lower than MCRCa” value in the series on malonyl-CoA is 100 times. The “specific activity with malonyl-CoA” value in the series on malonyl-CoA (0.25 mM malonyl-CoA) is given as 0.1 U mg^−1.

B2: malonyl-CoA reductase from Chloroflexus aurantiacus (MCRCa), SEQ ID NO: 8 (Chloroflexus aurantiacus) (protein)
chain: MSGTGRLAGKIALITGGAGNIGSELTRRFLAEGATVIISGRNRAKLTALAERMQAEAGVPAKRIDLEVMDGSDPVAVRAGIEAIVARHGQIDILVNNAGSAGAQRRLAEIPLTEAELGPGAEETLHASIANLLGMGWHLMRIAAPHMPVGSAVINVSTIFSRAEYYGRIPYVTPKAALNALSQLAARELGARGIRVNTIFPGPIESDRIRTVFQRMDQLKGRPEGDTAHHFLNTMRLCRANDQGALERRFPSVGDVADAAVFLASAESAALSGETIEVTHGMELPACSETSLLARTDLRTIDASGRTTLICAGDQIEEVMALTGMLRTCGSEVIIGFRSAAALAQFEQAVNESRRLAGADFTPPIALPLDPRDPATIDAVFDWGAGENTGGIHAAVILPATSHEPAPCVIEVDDERVLNFLADEITGTIVIASRLARYWQSQRLTPGARARGPRVIFLSNGADQNGNVYGRIQSAAIGQLIRVWRHEAELDYQRASAAGDHVLPPVWANQIVRFANRSLEGLEFACAWTAQLLHSQRHINEITLNIPANISATTGARSASVGWAESLIGLHLGKVALITGGSAGIGGQIGRLLALSGARVMLAARDRHKLEQMQAMIQSELAEVGYTDVEDRVHIAPGCDVSSEAQLADLVERTLSAFGTVDYLINNAGIAGVEEMVIDMPVEGWRHTLFANLISNYSLMRKLAPLMKKQGSGYILNVSSYFGGEKDAAIPYPNRADYAVSKAGQRAMAEVFARFLGPEIQINAIAPGPVEGDRLRGTGERPGLFARRARLILENKRLNELHAALIAAARTDERSMHELVELLLPNDVAALEQNPAAPTALRELARRFRSEGDPAASSSSALLNRSIAAKLLARLHNGGYVLPADIFANLPNPPDPFFTRAQIDREARKVRDGIMGMLYLQRMPTEFDVAMATVYYLADRNVSGETFHPSGGLRYERTPTGGELFGLPSPERLAELVGSTVYLIGEHLTEHLNLLARAYLERYGARQVVMIVETETGAETMRRLLHDHVEAGRLMTIVAGDQIEAAIDQAITRYGRPGPVVCTPFRPLPTVPLVGRKDSDWSTVLSEAEFAELCEHQLTHHFRVARKIALSDGASLALVTPETTATSTTEQFALANFIKTTLHAFTATIGVESERTAQRILINQVDLTRRARAEEPRDPHERQQELERFIEAVLLVTAPLPPEADTRYAGRIHRGRAITV
In the case of B2, in series [3] (setting [8]), the Michaelis constant (Km) is 25.7 ± 2.6 µM and the Vmax worked out at 635±14 mU/mg. Moreover, in series [3] (setting [9]), the Km was 0.03 ± 0.003 mM (tartronyl-CoA) mM and the Vmax is 0.6 ± 0.01 U mg^−1.

B3: propionyl-CoA carboxylase from Methylobacterium extorquens (PCCMe) variant PCCMe_D407I_Y143H (pccA SEQ ID NO: 2; pccB_D407I_Y143H SEQ ID NO: 6) (Methylorubrum … (protein)
chain 1: MKDILEKLEERRAQARLGGGEKRLEAQHKRGKLTARERIELLLDHGSFEEFDMFVQHRSTDFGMEKQKIPGDGVVTGWGTVNGRTVFLFSKDFTVFGGSLSEAHAAKIVKVQDMALKMRAPIIGIFDAGGARIQEGVAALGGHGEVFRRNVAASGVIPQISVIMGPCAGGDVYSPAMTDFIFMVRDTSYMFVTGPDVVKTVTNEVVTAEELGGAKVHTSKSSIADGSFENDVEAILQIRRLLDFLPANNIEGVPEIESFDDVNRLDKSLDTLIPDNPNKPYDMGELIRRVVDEGDFFEIQAAYARNIITGFGRVEGRTVGFVANQPLVLAGVLDSDASRKAARFVRFCNAFSIPIVTFVDVPGFLPGTAQEYGGLIKHGAKLLFAYSQATVPLVTIITRKAFGGAYIVMASKHVGADLNYAWPTAQIAVMGAKGAVEIIFRAEIGDADKIAERTKEYEDRFLSPFVAAERGYIDEVIMPHSTRKRIARALGMLRTKEMEQPWKKHDNIPL
chain 2: MFDKILIANRGEIACRIIKTAQKMGIKTVAVYSDADRDAVHVAMADEAVHIGPAPAAQSYLLIEKIIDACKQTGAQAVHPGYGFLSERESFPKALAEAGIVFIGPNPGAIAAMGDKIESKKAAAAAEVSTVPGFLGVIESPEHAVTIADEIGYPVMIKASAGGGGKGMRIAESADEVAEGFARAKSEASSSFGDDRVFVEKFITDPRHIEIQVIGDKHGNVIYLGERECSIQRRNQKVIEEAPSPLLDEETRRKMGEQAVALAKAVNYDSAGTVEFVAGQDKSFYFLEMNTRLQVEHPVTEMITGLDLVELMIRVAAGEKLPLSQDQVKLDGWAVESRVYAEDPTRNFLPSIGRLTTYQPPEEGPLGGAIVRNDTGVEEGGEIAIHYDPMIAKLVTWAPTRLEAIEAQATALDAFAIEGIRHNIPFLATLMAHPRWRDGRLSTGFIKEEFPEGFIAPEPEGPVAHRLAAVAAAIDHKLNIRKRGISGQMRDPSLLTFQRERVVVLSGQRFNVTVDPDGDDLLVTFDDGTTAPVRSAWRPGAPVWSGTVGDQSVAIQVRPLLNGVFLQHAGAAAEARVFTRREAELADLMPVKENAGSGKQLLCPMPGLVKQIMVSEGQEVKNGEPLAIVEAMKMENVLRAERDGTISKIAAKEGDSLAVDAVILEFA
For the molecule B3, in series [4], the Km is 1.0 ± 0.15 mM (glycolyl-CoA) mM and the Vmax amounted to 1.5 ± 0.09 U mg^−1.
